Data from US9603896B2, “Peptide compounds and methods of production and use thereof” (priority 2012, dated 2017).
Ends that are not written are not given here.

Assays:
[1] = format: physicochemical
Excerpt: In the initial stages of the work leading to the presently disclosed and claimed inventive concept(s), sequential addition of amino acids was used to make the peptides. Three candidate peptides (CAP3720-44 (SEQ ID NO:1), CAP3720-44ser26 (SEQ ID NO:2), and CAP3720-44ser42 (SEQ ID NO:5)) were synthesized. […] In one embodiment, a fragment Fmoc condensation strategy was used rather than sequential addition of amino acids. In the fragment condensation method, three small fragments were made and condensed together to form a CAP3720-44ser42 amino acid sequence (SEQ ID NO:5). The rationale behind this reasoning was that three small fragments could be synthesized in a highly purified form and linked together, thereby overcoming some of the aggregation problems. The product from this synthesis was dialyzed against 1% acetic acid and lyophilized and determined to be approximately 50% pure. Antimicrobial activity of this peptide was approximately half of what was normally obtained. In one embodiment, the dialysis procedure was changed to employ a dilute tri-fluoro acetic acid (TFA) solution (e.g., 0.1%), which obtained a product with stronger antimicrobial activity and greater purity (about 80%). In the next production, a cysteine residue was used that was protected during synthesis and then de-protected in the final stages of purification, in an attempt to improve stability.
When the arginines were linked to the peptide to form the peptide backbone (SEQ ID NOs: 18-20), there was marked increase in solubility of the peptides and very potent activity (capable of reducing bacterial load from 1×10^6 CFU/ml to […] CFU/ml, a 5 log reduction). […] Much time and experimental effort was spent in the laboratory exploring purification techniques, but yield and purity could not be increased beyond about 70%. […] Finally, after extensive additional experimentation, another solubilizing moiety was added to the peptides, and this addition increased half-life, solubility, and purity of the peptides. […]

[2] = tested on: Pseudomonas clinical isolate B64; assay: BIOSCREEN C™ growth assay, antibiotic and peptide combinations; format: cell-based, Pseudomonas aeruginosa
Description: Cefotaxime (Cefo) and peptide combinations included a constant amount of Cefotaxime (2.81 μg/ml) with suboptimal amounts of peptide (0, 0.34, 1.01, and 3.04 μg/ml).
The peptide and antibiotics were set up in the wells of the microtiter plate at starting ratios of MIC equivalents of antibiotic:peptide at 3:1, 1:1, and 1:3. They were serially diluted to concentrations well below suboptimal/sublethal levels of the antibiotic and peptide. The organism was added (1×10^5 CFU/well), the BIOSCREEN C™ assay (Growth Systems USA, Piscataway, N.J.) was performed, and data was collected over 24 hours.

mouse cornea = assay: In vivo model of corneal wound healing (corneal epithelial abrasion)
Description: The in vivo model of wound healing was carried out using a disposable biopsy punch (2 mm, Miltex, York, Pa.) to demarcate the mouse cornea and a 0.5 mm burr using the AlgerBrush II (The Alger Company, Inc., Lago Vista, Tex.) to remove the corneal epithelium. The corneal abrasions were treated at 0 and 16 hours with peptide 95-122 (10^−5 M), peptide 120-146WH (10^−6 M and 10^−8M), peptide 120-146WR ((10^−6 M and 10^−8M), or vehicle control (0.9% sodium chloride, pH 5.5, Baxter, Deerfield, Ill.). Corneal abrasions were visualized using sterile fluorescein sodium ophthalmic strips USP (Fluorets®, Chauvin Laboratory, Aubenas, France) dampened with sterile PBS. Images were taken at 0, 16, and 24 hours immediately following fluorescein staining.
Mice were anesthetized using ketamine (100 mg/kg; Bionichepharma, LLC., St. Lake Forrest, Ill.) and xylazine ([…]; Rompun; Bayer Corp., Shawnee Mission, Kans.), and the right cornea was wounded as follows. A disposable biopsy punch (2 mm, Miltex, York, Pa.) was used to demarcate the mouse cornea. The corneal epithelium was carefully removed within the 2 mm demarcated area with a 0.5 mm burr using the AlgerBrush II (The Alger Company, Inc., Lago Vista, Tex.). The corneal abrasions were treated at 0 and 16 hours with HB-EGF (250 ng/ml), rCAP37 (250 ng/ml), or vehicle control (0.9% sodium chloride, pH 5.5, Baxter, Deerfield, Ill.). Corneal abrasions were visualized using sterile fluorescein sodium ophthalmic strips USP (FLUORETS®, Chauvin Laboratory, Aubenas, France) dampened with sterile PBS. Images were taken at 0, 16, 24, and 48 hours immediately following fluorescein staining using a surgical microscope equipped with a camera (Carl Zeiss OPMI VISU 140, Carl Zeiss Surgical, Inc., Oberkochen, Germany). The areas of the open wound were quantitated using ImageJ software (US National Institutes of Health), and the results were reported as the percentage of wound closure.
Whole mouse eyes were collected for histology at 0, 6, 16, 24, and 48 hours post wounding and were immediately placed in Prefer fixative (Anatech LTD., Battle Creek, Mich.) for 20 minutes before being transferred to 70% ethanol. Tissues were paraffin-embedded and cut at a thickness of 5 μm, mounted on SUPERFROSTPLUS® slides (Statlab Medical Products, Lewisville, Tex.), and subsequently deparaffinized, rehydrated, and washed in deionized water. Sections were stained with hematoxylin (Leica Microsystems, Buffalo Grove, Ill.) and rinsed twice in deionized water before being washed in Blue Buffer (Leica Microsystems). The sections were finally washed in deionized water and 95% ethanol prior to being counterstained with eosin (Leica Microsystems). Sections were dehydrated in ethanol and cleared in xylene.

HCEC monolayers = assay: In vitro scratch assay of wound closure in HCEC monolayers; format: cell-based, human
Description: An in vitro scratch assay was used in order to determine the ability of rCAP37 to facilitate corneal wound healing. Human corneal epithelial cells were cultured as described above until they reached a confluent monolayer. Each monolayer was scratched using a 10 μl pipette tip to create two perpendicular lines. Monolayers were treated with heparin binding-epidermal growth factor (HB-EGF, 250 ng/ml; Becton Dickinson), rCAP37 (25-2000 ng/ml), or basal KSFM (Gibco). Wound closure was monitored at 0, 18, 24, and 48 hours utilizing a camera-equipped inverted microscope (TE2000-E; Nikon, Melville, N.Y.). Time-lapse images of in vitro wound closure were obtained using a camera-equipped inverted microscope (TE2000-E; Nikon) from 0-18 hours. HCEC monolayers were treated with HB-EGF, rCAP37, and basal KSFM as described above. The width of each scratch was quantitated using ImageJ software (US National Institutes of Health, Bethesda, Md.). Results are presented as the percentage of wound closure.

[3] = tested on: human corneal epithelial cell (HCEC); assay: HCEC chemotaxis, modified Boyden chemotaxis chamber assay; format: cell-based; conditions: 120-146QH at 10^−4, 10^−6, 10^−8, 10^−10 M; 120-146QR at 10^−6, 10^−8 M; HB-EGF 50 ng/ml; rCAP37 250 ng/ml; 3 hours at 37° C
Description: The effect of buffer control (0.1% BSA in Gey's buffer), heparin binding-epidermal growth factor (HB-EGF, 50 ng/ml), recombinant CAP37 (rCAP37, 250 ng/ml), 120-146QH (10^−12M, 10^−10 M, 10^−8 M, 10^−6M, and 10^−4M,) and 120-146QR (10^−10M, 10^−8M, 10^−6M, and 10^−4M) on HCEC chemotaxis was determined by the modified Boyden chemotaxis chamber method. HCEC chemotaxis was measured in response to HB-EGF, rCAP37, and peptides 120-146QH (SEQ ID NO:29) and 120-146QR (SEQ ID NO:28) after incubation for 3 hours at 37° C. Chemotaxis is expressed as a percent migration. The buffer control (no chemoattractant) is arbitrarily assigned the value of 100% migration. Data are expressed as means±SEM and are calculated from 6 observations for each test point. **P<0.01 by Wilcoxon signed-rank test as compared to controls.
Chemotaxis assays were performed using the modified Boyden chemotaxis chamber assay. Peptide 120-146QH was used at 10^−4 M, 10^−6 M, 10^−8 M, 10^−10 M, and 10^−12 M, and peptide 120-146QR was used at 10^−4 M, 10^−6M, 10^−8M, and 10^−10 M.

## NQGRHFCGGALIHARFVMTAASSFQ [CAP3720-44ser42]
[1]
  solubility: relatively insoluble

## NQGRHFCGGALIHARFVMTAASCFQ (listed as Homo sapiens) [CAP3720-44]
[1]
  solubility: relatively insoluble

## CO/N=C(\C(=O)N[C@@H]1C(=O)N2C(C(=O)O)=C(COC(C)=O)CS[C@H]12)c1csc(N)n1 [Cefotaxime, reference compound]
[2]; 2.8 μg/ml
  bactericidal impact of antibiotic alone: very little bactericidal impact

## C[C@H]1COc2c(N3CCN(C)CC3)c(F)cc3c(=O)c(C(=O)O)cn1c23 [Levofloxacin, reference compound]
[2]; in the presence of 3.04 μg/ml of the peptide BCC02-5RMP
  MIC of Levofloxacin in combination with peptide: 3.5 µg/mL

## NQGRHFSGGALIHARFVMTAASCFQ [CAP3720-44ser26]
[1]
  solubility: relatively insoluble

B1: heparin binding-epidermal growth factor (protein, UniProt Q99075 63-148, looked up)
Heparin-binding EGF-like …: DLQEADLDLLRVTLSSKPQALATPNKEEHGKRKKKGKGLGKKRDPCLRKYKDFCIHGECKYVKELRAPSCICHPGYHGERCHGLSL
notes: positive control growth factor
Mouse cornea; 250 ng/ml at 0 and 16 hours
  closure of wounds compared to the buffer control: significantly higher
HCEC monolayers; 250 ng/ml
  time to complete closure of scratch wounds: ≤ 24 h
HCEC monolayers; 250 ng/ml, at 18 hours
  percentage wound closure: ~88%
[3]
  migration of HCECs vs buffer control: significant increase in migration

B2: CAP37: cationic antimicrobial protein of Mr 37 kDa; recombinant CAP37 produced in HEK 293 cells (protein)
chain: IVGGRKARPRQFPFLASIQNQGRHFCGGALIHARFVMTAASCFQSQNPGVSTVVLGAYDLRRRERQSRQTFSISSMSENGYDPQQNLNDLMLLQLDREANLTSSVTILPLPLQNATVEAGTRCQVAGWGSQRSGGRLSRFPRFVNVTVTPEDQCRPNNVCTGVLTRRGGICNGDGGTPLVCEGLAHGVASFSLGPCGRGPDFFTRVALFRDWIDGVLNNPGP
Mouse cornea; 16 hours, 250 ng/ml topical at 0 and 16 hours
  reduction of wound size (wound closure): 71%
Mouse cornea; 24 hours, 250 ng/ml
  re-epithelialization (H&E histology) vs vehicle-treated wounds: greatly accelerated
Mouse cornea; 24 hours, 250 ng/ml topical at 0 and 16 hours
  wound closure: 83%
Mouse cornea; 48 hours, 250 ng/ml
  structural integrity of epithelium (H&E histology): regained full integrity
HCEC monolayers; 250 ng/ml, at 18 hours
  percentage wound closure: ~71%
HCEC monolayers; 500 ng/ml
  percentage wound closure: approximately 62%
[3]
  migration of HCECs vs buffer control: significant increase in migration
